Assay results reported in EP4714974A1.

What was measured:
[1] = target: cynomolgus monkey GPRC5D (cynomolgus monkey); experiment: flow cytometry on cynomolgus monkey GPRC5D-CHOK1 cells (negative control)
[2] = target: human GPRC5D (human) (UniProt Q9NZD1); experiment: flow cytometry on human GPRC5D-CHOK1 cells (negative control)
[3] = target: human GPRC5D (human) (UniProt Q9NZD1); experiment: as above; remark: listed apart in the source
[4] = target: human GPRC5D (human) (UniProt Q9NZD1); experiment: flow cytometry on NCI-H929 cells (negative control)

human GPRC5D (human), sequence (Q9NZD1 whole entry): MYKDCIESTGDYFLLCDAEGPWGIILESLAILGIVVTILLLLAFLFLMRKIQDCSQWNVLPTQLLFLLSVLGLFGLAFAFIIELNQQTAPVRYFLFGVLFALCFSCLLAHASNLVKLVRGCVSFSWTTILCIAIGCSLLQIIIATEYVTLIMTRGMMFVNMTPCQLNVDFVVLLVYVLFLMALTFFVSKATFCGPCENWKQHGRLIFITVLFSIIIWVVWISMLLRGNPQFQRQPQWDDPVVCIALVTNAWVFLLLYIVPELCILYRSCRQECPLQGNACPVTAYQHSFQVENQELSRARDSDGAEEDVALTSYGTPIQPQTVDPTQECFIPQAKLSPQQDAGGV

**Q.** With “IgG1 AA (negative control, purchased from Biointron, Cat. No. B109802) (antibody)” as the substance, how does the Top mean fluorescence intensity (Top MFI) [1] read?
**A.** The Top mean fluorescence intensity (Top MFI) was 2040 MFI.

**Q.** What about the Top mean fluorescence intensity (Top MFI) [2] of the same substance?
**A.** Its Top mean fluorescence intensity (Top MFI) is 1610 MFI.

**Q.** What about the Top mean fluorescence intensity (Top MFI) [3] of the same substance?
**A.** The Top mean fluorescence intensity (Top MFI) was 51 MFI.

**Q.** And the Top mean fluorescence intensity (Top MFI) [4]?
**A.** Its Top mean fluorescence intensity (Top MFI) is 165 MFI.
